What was measured:
PD-L1 [1] = target: T1, PD-L1 (human, UniProt Q9NZQ7); assay: FACS, 4C
SSTR4 = SSTR4 (human, UniProt P31391); assay: FACS, membrane proteome array titration
rhPD-L1 = rhPD-L1 (human, UniProt Q9NZQ7); assay: ELISA
PD-L1 [2] = target: T1, PD-L1; assay: competition, FACS blocking of biotin-PD-1, 4C

T1 sequence (Q9NZQ7 19-238): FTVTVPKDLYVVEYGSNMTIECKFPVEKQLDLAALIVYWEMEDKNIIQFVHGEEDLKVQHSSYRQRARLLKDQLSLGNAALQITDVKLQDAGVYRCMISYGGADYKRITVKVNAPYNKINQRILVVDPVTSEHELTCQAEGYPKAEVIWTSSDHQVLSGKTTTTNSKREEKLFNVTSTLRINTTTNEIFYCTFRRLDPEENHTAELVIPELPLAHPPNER
Sequence of rhPD-L1 (Q9NZQ7 19-238): as above
Sequence of SSTR4 (P31391 whole entry): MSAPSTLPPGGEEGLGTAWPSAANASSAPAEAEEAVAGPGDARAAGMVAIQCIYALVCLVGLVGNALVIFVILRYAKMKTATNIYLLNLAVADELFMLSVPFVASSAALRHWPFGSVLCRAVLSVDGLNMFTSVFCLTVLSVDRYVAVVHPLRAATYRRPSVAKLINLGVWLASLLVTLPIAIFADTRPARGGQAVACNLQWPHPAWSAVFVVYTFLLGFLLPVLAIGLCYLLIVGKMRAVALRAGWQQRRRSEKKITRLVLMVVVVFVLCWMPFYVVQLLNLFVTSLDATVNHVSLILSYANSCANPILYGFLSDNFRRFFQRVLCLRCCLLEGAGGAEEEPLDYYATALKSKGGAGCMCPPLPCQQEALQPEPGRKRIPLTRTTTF

Kd (PD-L1 [1]) | binding result (SSTR4) | Kd (rhPD-L1) | EC50 (PD-L1 [2]) | Binder
0.058 µg/mL | no binding | 0.036 µg/mL | 0.058 µg/mL | TCRC-L8 (antibody, V domains shown) VH: QVQLQESGPGLVKPSETLSLTCTVSGDSITSGYWNWIRQPPGKGLEYMGYISFTGSTYYNPSLKSRVTISVDTSKNQFSLKLSSVTAADTAVYYCARKREWILHPMDYWGQGTLVTVSS VL: AIQLTQSPSSLSASVGDRVTITCSASSSVSYMHWYQQKPGKAPKLWIYDTSKLASGVPSRFSGSGSGTDFTLTISSLQPEDFATYYCFQESGYPLTFGGGTKLTVL
0.074 µg/mL |  | 0.04 µg/mL | 0.074 µg/mL | TCRC-L2 (antibody, V domains shown) VH: EVQLQESGPSLVKPSQTLSLTCSVTGDSITSGYWNWIRKFPENKLEYMGYISFTGSTYYNPSLKSRISITRDTSKNQYYLQLNSVTTEDTATYYCARKREWILHPMDYWGQGTSVTVSS VL: ENVLTQSPAIMSASPGEKVTMTCSASSSVSYMHWYQQKSLTSPKLWIYDTSKLASGVPGRFSGSGSGNFYSLTISSMEAEDVATYYCFQESGYPLTFGAGTKLELK
